Reference: patent publication US20240109974A1 (SHANDONG SIMCERE BIOPHARMACEUTICAL, published 2024)

Tests used:
[1] = molecular target: T1, human TNFR2 (Novoprotein, Cat #C830) (human, UniProt P20333 23-257, limits assumed); test: competition ELISA: antibody titrated against human TNFα-Biotin on coated human TNFR2 (Novoprotein), detection with Streptavidin-HRP [panel B]
T1 construct: construct not described; also called human TNFR2 protein
T1 sequence (looked up): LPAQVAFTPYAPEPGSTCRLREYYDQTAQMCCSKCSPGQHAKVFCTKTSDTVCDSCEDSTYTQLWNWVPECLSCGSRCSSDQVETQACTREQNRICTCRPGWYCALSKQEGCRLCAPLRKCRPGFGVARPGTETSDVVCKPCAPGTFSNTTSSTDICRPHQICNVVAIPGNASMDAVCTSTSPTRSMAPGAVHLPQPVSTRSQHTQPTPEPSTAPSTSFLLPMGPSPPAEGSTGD
Procedure: (§1) 1 μg/ml human TNFR2 (Novoprotein, Cat #C830) was pre-coated with 100 μl/well […] in an ELISA plate. All the test TNFR2 antibodies were subjected to 2.5-fold gradient dilution from the highest concentration of 30 μg/ml; the diluted antibodies were mixed with 15 ng/ml human TNFα-Biotin (Acro Biosystem, Cat #TNA-H82E3) in equal volume, respectively; the resulting mixture was added to the ELISA plate at 100 μl/well, and incubated with shaking at room temperature for 2.0 hours. The plate was washed, and then a Streptavidin-HRP working solution (diluted at 1:10000) was added at 100 μl/well, and the mixture was incubated with shaking at room temperature for 40 minutes. The plate was washed again, and then the substrate TMB of HRP was added to develop colour. A stop solution was added to stop the reaction, and then a microplate reader (MD 13) was used to read the absorbance value. The inhibitory curve of an antibody was drawn with antibody concentration as the abscissa and corresponding OD value as the ordinate, and fitted with four parameters (GraphPad Prism9) to calculate the IC50 value. The smaller the IC50 value, the stronger the ability of an antibody to inhibit the binding of human TNFα to human TNFR2. The blocking effect of a humanized antibody was normalized to its corresponding human-murine chimeric antibody WT. […]

[2] = molecular target: T1, human TNFR2 (Novoprotein, Cat #C830); test: competition ELISA: antibody titrated against human TNFα-Biotin on coated human TNFR2 (Novoprotein), detection with Streptavidin-HRP [panel C]
Procedure: as §1

[3] = molecular target: T2, Cynomolgus TNFR2-His (Sino 90102-C08H) (cynomolgus monkey, UniProt A0A2K5VET2 132-366); test: ELISA, plate coated with Cynomolgus TNFR2-His, detection with anti-human IgG Fc-HRP [panel C]
T2 construct: Bought protein; also called cynomolgus monkey TNFR2; recombinant cynomolgus monkey TNFR2 protein; not shown: His tag
T2 sequence: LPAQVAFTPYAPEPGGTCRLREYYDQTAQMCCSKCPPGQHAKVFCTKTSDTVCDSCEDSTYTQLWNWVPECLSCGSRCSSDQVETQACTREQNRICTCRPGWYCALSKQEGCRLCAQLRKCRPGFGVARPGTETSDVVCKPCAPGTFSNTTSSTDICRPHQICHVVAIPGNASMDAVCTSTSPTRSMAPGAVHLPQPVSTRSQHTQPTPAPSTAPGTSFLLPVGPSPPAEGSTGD
Procedure: The test humanized antibody against TNFR2 (as described in Example 1, the antibody was comprised of variable regions linked to IgG-Fc; the WT chimeric antibody also adopted the IgG-Fc structure) was subjected to 3.33-fold gradient dilution, loaded with 100 μl/well, and incubated with shaking at room temperature for 1.5 hours. The plate was washed, and then a working solution of murine anti-human IgG Fc-HRP (diluted at 1:10000) was added, loaded with 100 μl/well, and incubated with shaking at room temperature for 1.0 hour. The plate was washed again, and then the substrate TMB of HRP was added to develop colour. A stop solution was added to stop the reaction, and then a microplate reader (MD 13) was used to read the absorbance value. The binding curve of an antibody was drawn with antibody concentration as the abscissa and corresponding OD value as the ordinate, and fitted with four parameters (GraphPad Prism9) to calculate the EC50 value. The smaller the EC50 value, the stronger the binding ability of an antibody to human/cynomolgus monkey TNFR2. The binding effect of a humanized antibody was normalized to its corresponding human-murine chimeric antibody WT (see SEQ ID NOs: 38-43 for the sequence). The higher the percentage value, the better the binding effect of the humanized antibody. […]

B1: 219-WT (antibody, V domains shown)
VH: EVQLQESGAELVRPGASVKLSCKASGYSFTNYWMNWVKQRPGQGLEWIGMIHPSDTETRLNQNFKDKATLTVDKSSSTSYMQLSSPTSEDSAVYYCARGEGLGAARSVSMDYWGQGTTVTVSS
VL: DILMTQSPSSLSASLGDRVTISCRASQDISNYLNWYQQKPDGTVKVLIYYTAILHSGVPSRFSGSGSGTDYSLTISNLEQEDIATYFCQQGNTLPWTFGGGTKLEIK
notes: Human-murine chimeric wild-type molecule
- IC50 (read off the curve) [1]: ~0.6 µg/mL

B2: 224-WT (antibody, V domains shown)
VH: EVQLQESGPEIVKPGASVKLSCTASGFNNKDIYMHWVKQRPEQGLEWIGRIDPATGNTKHDPKFQDKATLSSDTSSNTAYLQFSSLTSEDTAVYYCAHSPYGDFGAMDYWGQGTTVTVSS
VL: DIQMTQSPAIMSASLGERVTMTCTASSSVSSNYLHWYQQKPGSSPKLWIYSTSNLPSGVPARFSGSGSGTSYSLTISSMEAEDAATYYCHQYHRSPWTFGGGTKLEIK
notes: Human-murine chimeric wild-type molecule; also called human-murine chimeric antibody WT of #224
- IC50 (read off the curve) [2]: ~0.5 µg/mL
- EC50 (read off the curve) [3]: ~0.01 µg/mL
